Assay results published in patent publication US20190016825A1 (JIANGSU HENGRUI MEDICINE, published 2019).

Key:
PCSK9-D374Y-BP15-His6 [1] = target: T1, PCSK9-D374Y-BP15-His6 (human, UniProt Q8NBP7 31-692, biotin on the BP15 biotin receiving peptide); assay: blocking ELISA, LDLR-FC (SEQ ID NO: 8) coated, bio-PCSK9-Y plus antibody
T1 construct: also called PCSK9-Y; mutant PCSK9
Procedure: The blocking abilities of anti-PCSK9 antibodies to the binding of LDLR-FC (SEQ ID NO: 8) to PCSK9-Y (mutant PCSK9, SEQ ID NO: 6) were detected by measuring the amount of PCSK9-Y binding to LDLR in the presence of the antibodies.
LDLR-FC was diluted to 2 μg/ml with phosphate buffer and coated in the 96-well ELISA plate (Costar, CAT#3590), then incubated at 4° C. overnight. The plate was washed and then blocked with Tris buffer (including 0.9 mM CaCl₂, 0.05% Tween 20 and 5% skim milk) at 37° C. for 2 hours. Then the plate was washed again and 100 μl/well of the mixture of biotin-labeled PCSK9-Y (bio-PCSK9-Y, diluted to final concentration of […] with Tris buffer containing 0.9 mM CaCl₂, 0.05% Tween 20 and 1% skim milk) and antibody samples (diluted with Tris buffer containing 0.9 mM CaCl₂, 0.05% Tween 20 and 1% skim milk) were added and incubated at 37° C. for 1 hour. Then the plate was washed again and horseradish peroxidase-streptavidin (sigma, CAT#S2438) was added and incubated at 37° C. for 1 hour. Then the plate was washed and tetramethylbenzidine solution was added for development. Finally, the stop solution was added and the OD450 value was measured on the Microplate reader, then IC50 was calculated.
The results of blocking test for the blocking effects of the chimeric antibodies and back-mutated antibodies of the present invention on the binding of LDLR-FC/PCSK9-Y are shown in table 7.

PCSK9-BP15-His6 [2] = target: T2, PCSK9-BP15-His6 (human, UniProt Q8NBP7 31-692, biotin on the BP15 biotin receiving peptide); assay: ELISA, bio-WT-PCSK9 captured on streptavidin plate
T2 construct: It holds a signal peptide (underlined in print); also called WT PCSK9; bio-WT-PCSK9
Procedure: The binding ability of anti-PCSK9 antibodies of the present invention to PCSK9 was detected by measuring the amount of antibodies binding to wild-type PCSK9 protein (WT PCSK9, SEQ ID NO: 5) fixed on the ELISA plate.
Streptavidin (sigma, CAT#S4762) was diluted to 2 μg/ml with PBS and coated into 96-well ELISA plate, at 4° C. overnight. The plate was washed and then blocked with Tris buffer (including 0.9 mM CaCl2, 0.05% Tween 20 and 5% skim milk) at 37° C. for 2 hours. Then the plate was washed again and 100 μl/well of the biotin-labeled PCSK9, produced in-house, (bio-WT-PCSK9, diluted with Tris buffer containing 0.9 mM CaCl2, 0.05% Tween 20 and 1% skim milk), was added and incubated at 37° C. for 1 hour. After the wash step, different concentrations of diluted PCSK9 antibody samples was added to the plate and incubated at 37° C. for 1 hour. Then the plate was washed again and HRP-goat-anti-human (H+L) antibody (Jackson ImmunoResearch, CAT#109-035-088) was added and incubated at 37° C. for 1 hour. Then the plate was washed again and tetramethylbenzidine solution was added for development. Finally, the stop solution was added and the OD450 value was measured on the Microplate reader, and then EC50 was calculated.

PCSK9-D374Y-BP15-His6 [3] = target: T1, PCSK9-D374Y-BP15-His6; assay: ELISA, bio-PCSK9-Y captured on streptavidin plate
Procedure: The binding ability of anti-PCSK9 antibodies of the present invention to PCSK9-Y was detected by measuring the amount of antibodies binding to PCSK9-Y (mutant PCSK9, SEQ ID NO: 6) fixed on the ELISA plate.
Streptavidin (sigma, CAT#54762) was diluted to 2 μg/ml with PBS and coated into 96-well ELISA plate at 4° C. overnight. The plate was washed and then blocked with Tris buffer (including 0.9 mM CaCl₂, 0.05% Tween 20 and 5% skim milk) at 37° C. for 2 hours. Then the plate was washed again and 100 μl/well of the biotin-labeled PCSK9-Y, produced in-house, (bio-PCSK9-Y, diluted with Tris buffer containing 0.9 mM CaCl₂, 0.05% Tween 20 and 1% skim milk) was added and incubated at 37° C. for 1 hour. After the wash step, different concentrations of diluted PCSK9 antibody samples were added to the plate and incubated at 37° C. for 1 hour. Then the plate was washed again and HRP-goat-anti-human (H+L) antibody (Jackson ImmunoResearch, CAT#109-035-088) was added and incubated at 37° C. for 1 hour. Then the plate was washed again and tetramethylbenzidine solution was added for development. Finally, the stop solution was added and the OD450 value was measured on the Microplate reader, and then EC50 was calculated.
The results of ELISA test for the binding ability of chimeric antibodies and back-mutated antibodies of the present invention to mutant PCSK9 are shown in table 6.

PCSK9-BP15-His6 [4] = target: T2, PCSK9-BP15-His6; assay: blocking ELISA, LDLR-FC (SEQ ID NO: 8) coated, bio-WT-PCSK9 plus antibody
Procedure: The blocking abilities of PCSK9 antibodies of the present invention to the binding of LDLR-FC (produced in-house, sequence is shown in SEQ ID NO: 8) to PCSK9 (SEQ ID NO: 5) were detected by measuring the amount of PCSK9 binding to LDLR in the presence of the antibodies.
LDLR-FC was diluted to 5 μg/ml with phosphate buffer and coated in the 96-well ELISA plate, then incubated at 4° C. overnight. The plate was washed and then blocked with Tris buffer (including 0.9 mM CaCl₂, 0.05% Tween 20 and 5% skim milk) at 37° C. for 2 hours. Then the plate was washed again and 100 μl/well of the mixture of biotin-labeled PCSK9 (bio-WT-PCSK9, diluted to the final concentration of 2 μg/ml with Tris buffer containing 0.9 mM CaCl₂, 0.05% Tween 20 and 1% skim milk) and antibody samples (diluted with Tris buffer containing 0.9 mM CaCl₂, 0.05% Tween 20 and 1% skim milk) were added and incubated at 37° C. for 1 hour. Then the plate was washed again and horseradish peroxidase-streptavidin (Sigma, CAT#52438) was added and incubated at 37° C. for 1 hour. Then the plate was washed and tetramethylbenzidine solution was added for development. Finally, the stop solution was added and the OD450 was measured on the Microplate reader, then IC50 was calculated.

| Binder | IC50 (PCSK9-D374Y-BP15-His6 [1]) [µg/mL] | EC50 (PCSK9-BP15-His6 [2]) [µg/mL] | EC50 (PCSK9-D374Y-BP15-His6 [3]) [µg/mL] | IC50 (PCSK9-BP15-His6 [4]) [µg/mL] |
| --- | --- | --- | --- | --- |
| Ch-001 (antibody, V domains shown, also called chimeric antibody) VH: QVHLQQSGAELAKPGASVKLSCKASGYTFNDYWMHWVKERPGQGLEWIGYINPSSGFTKYHQNFKDKATLTADKSSSTAYMQLSSLTYDDSAVYYCARQYDYDEDWYFDVWGTGTTVTVSS VL: DIVMSQSPSSLAVSAGEKVTMSCKSSQSLLNSRTRKNFLAWYQQKPGQSPKLLIYWASTRESGVPDRFTGRGSGTDFTLTISSVQAEDLAVYYCKQSFNLFTFGSGTKLEIK | 0.392 | 0.0084 | 0.0132 | 0.836 |
| h001-1 (antibody, human IgG1, V domains shown, Variable regions only; also called h001_VH.1 + h001_VL.1) VH: QVQLVQSGAEVKKPGASVKVSCKASGYTFTDYWMHWVRQAPGQGLEWMGYINPSSGFTKYHQNFKDRVTMTRDTSISTAYMELSRLRSDDTAVYYCARQYDYDEDWYFDVWGQGTTVTVSS VL: DIQMTQSPSSLSASVGDRVTITCKSSQSLLNSRTRKNFLAWYQQKPGKAPKLLIYWASTRESGVPSRFSGSGSGTDFTLTISSLQPEDFATYYCKQSFNLFTFGQGTKLEIK | 0.566 | 0.0084 | 0.0132 | 0.5 |
| h001-3 (antibody, human IgG1, V domains shown, Variable regions only; also called h001_VH.1 + h001_VL.1B) VH: QVQLVQSGAEVKKPGASVKVSCKASGYTFTDYWMHWVRQAPGQGLEWMGYINPSSGFTKYHQNFKDRVTMTRDTSISTAYMELSRLRSDDTAVYYCARQYDYDEDWYFDVWGQGTTVTVSS VL: DIQMSQSPSSLSASVGDRVTITCKSSQSLLNSRTRKNFLAWYQQKPGKAPKLLIYWASTRESGVPDRFSGSGSGTDFTLTISSLQPEDFATYYCKQSFNLFTFGQGTKLEIK | 0.475 | 0.0113 | 0.0152 | 0.702 |
| h001-6 (antibody, human IgG1, V domains shown, Variable regions only; also called h001_VH.1A + h001_VL.1A) VH: QVQLVQSGAEVKKPGASVKVSCKASGYTFNDYWMHWVRQAPGQGLEWMGYINPSSGFTKYHQNFKDRVTMTRDTSISTAYMELSRLRSDDTAVYYCARQYDYDEDWYFDVWGQGTTVTVSS VL: DIQMTQSPSSLSASVGDRVTITCKSSQSLLNSRTRKNFLAWYQQKPGKAPKLLIYWASTRESGVPDRFSGSGSGTDFTLTISSLQPEDFATYYCKQSFNLFTFGQGTKLEIK | 0.437 | 0.01 | 0.0144 | 0.662 |
| h001-10 (antibody, human IgG1, V domains shown, Variable regions only; also called h001_VH.1B + h001_VL.1A) VH: QVQLVQSGAEVKKPGASVKVSCKASGYTFTDYWMHWVRQAPGQGLEWMGYINPSSGFTKYHQNFKDRVTMTRDTSISTAYMELSRLTSDDTAVYYCARQYDYDEDWYFDVWGQGTTVTVSS VL: DIQMTQSPSSLSASVGDRVTITCKSSQSLLNSRTRKNFLAWYQQKPGKAPKLLIYWASTRESGVPDRFSGSGSGTDFTLTISSLQPEDFATYYCKQSFNLFTFGQGTKLEIK | 0.514 | 0.0176 | 0.0209 | 0.829 |
| h001-9 (antibody, human IgG1, V domains shown, Variable regions only; also called h001_VH.1B + h001_VL.1) VH: QVQLVQSGAEVKKPGASVKVSCKASGYTFTDYWMHWVRQAPGQGLEWMGYINPSSGFTKYHQNFKDRVTMTRDTSISTAYMELSRLTSDDTAVYYCARQYDYDEDWYFDVWGQGTTVTVSS VL: DIQMTQSPSSLSASVGDRVTITCKSSQSLLNSRTRKNFLAWYQQKPGKAPKLLIYWASTRESGVPSRFSGSGSGTDFTLTISSLQPEDFATYYCKQSFNLFTFGQGTKLEIK | 0.52 | 0.0136 | 0.0194 | 0.923 |
| h001-7 (antibody, human IgG1, V domains shown, Variable regions only; also called h001_VH.1A + h001_VL.1B) VH: QVQLVQSGAEVKKPGASVKVSCKASGYTFNDYWMHWVRQAPGQGLEWMGYINPSSGFTKYHQNFKDRVTMTRDTSISTAYMELSRLRSDDTAVYYCARQYDYDEDWYFDVWGQGTTVTVSS VL: DIQMSQSPSSLSASVGDRVTITCKSSQSLLNSRTRKNFLAWYQQKPGKAPKLLIYWASTRESGVPDRFSGSGSGTDFTLTISSLQPEDFATYYCKQSFNLFTFGQGTKLEIK | 0.515 | 0.012 | 0.0137 | 0.652 |
| h001-8 (antibody, human IgG1, V domains shown, Variable regions only; also called h001_VH.1A + h001_VL.1C) VH: QVQLVQSGAEVKKPGASVKVSCKASGYTFNDYWMHWVRQAPGQGLEWMGYINPSSGFTKYHQNFKDRVTMTRDTSISTAYMELSRLRSDDTAVYYCARQYDYDEDWYFDVWGQGTTVTVSS VL: DIVMSQSPSSLSASVGDRVTITCKSSQSLLNSRTRKNFLAWYQQKPGKSPKLLIYWASTRESGVPDRFSGSGSGTDFTLTISSLQPEDFATYYCKQSFNLFTFGQGTKLEIK | 0.414 | 0.009 | 0.0165 | 0.774 |
| h001-2 (antibody, human IgG1, V domains shown, Variable regions only; also called h001_VH.1 + h001_VL.1A) VH: QVQLVQSGAEVKKPGASVKVSCKASGYTFTDYWMHWVRQAPGQGLEWMGYINPSSGFTKYHQNFKDRVTMTRDTSISTAYMELSRLRSDDTAVYYCARQYDYDEDWYFDVWGQGTTVTVSS VL: DIQMTQSPSSLSASVGDRVTITCKSSQSLLNSRTRKNFLAWYQQKPGKAPKLLIYWASTRESGVPDRFSGSGSGTDFTLTISSLQPEDFATYYCKQSFNLFTFGQGTKLEIK | 0.455 | 0.0123 | 0.0157 | 0.675 |
| h001-5 (antibody, human IgG1, V domains shown, Variable regions only; also called h001_VH.1A + h001_VL.1) VH: QVQLVQSGAEVKKPGASVKVSCKASGYTFNDYWMHWVRQAPGQGLEWMGYINPSSGFTKYHQNFKDRVTMTRDTSISTAYMELSRLRSDDTAVYYCARQYDYDEDWYFDVWGQGTTVTVSS VL: DIQMTQSPSSLSASVGDRVTITCKSSQSLLNSRTRKNFLAWYQQKPGKAPKLLIYWASTRESGVPSRFSGSGSGTDFTLTISSLQPEDFATYYCKQSFNLFTFGQGTKLEIK | 0.468 | 0.0141 | 0.0152 | 4.32 |
